Test results taken from publication PMC4866497.
Where two headings read alike, the source gives them in different places. One block for each substance: values may come before it.

Tests used:
[1] = tested on: MetMab full heavy chain with E357D S364Q Y407A, with MetMab light chain; experiment: SEC
[2] = tested on: MetMab full heavy chain with E357D S364Q Y407A, with MetMab light chain; experiment: SEC; remark: listed apart in the source
[3] = tested on: MetMab full heavy chain with T366W, with MetMab light chain; experiment: SEC
[4] = tested on: MetMab full heavy chain with T366W, with MetMab light chain; experiment: SEC; remark: listed apart in the source
[5] = tested on: EGFR domain 3 - Fc with Y349S K370Y T366M K409V; experiment: FRET or BRET
[6] = tested on: EGFR domain 3 - Fc with T366W; experiment: FRET or BRET
[7] = molecular target: VEGFR1 domain 3 - Fc, wild-type CH3; experiment: FRET or BRET
[8] = molecular target: MetMab full heavy chain with T350V L351Y F405A Y407V, with MetMab light chain; experiment: SEC
[9] = tested on: MetMab full heavy chain with wild-type CH3, with MetMab light chain [IgG part: P01857]; experiment: SEC
[10] = tested on: MetMab full heavy chain with wild-type CH3, with MetMab light chain [IgG part: P01857]; experiment: SEC; remark: listed apart in the source
[11] = tested on: EGFR domain 3 - Fc with Y349S K370Y T366V K409V; experiment: FRET or BRET
[12] = tested on: MetMab full heavy chain with T366S L358V Y407A, with MetMab light chain; experiment: SEC
[13] = tested on: MetMab full heavy chain with T366S L358V Y407A, with MetMab light chain; experiment: SEC; remark: listed apart in the source
[14] = tested on: MetMab full heavy chain with Y349S K370Y T366M K409V, with MetMab light chain; experiment: SEC
[15] = tested on: MetMab full heavy chain with Y349S K370Y T366M K409V, with MetMab light chain; experiment: SEC; remark: listed apart in the source
[16] = molecular target: MetMab full heavy chain with K409D K392D, with MetMab light chain; experiment: SEC
IgG1 Fc, wild-type CH3 = experiment: SEC
[17] = molecular target: MetMab full heavy chain with D399K E356K, with MetMab light chain; experiment: SEC
[18] = tested on: MetMab full heavy chain with D399K E356K, with MetMab light chain; experiment: SEC; remark: listed apart in the source
[19] = tested on: EGFR domain 3 - Fc with K409D K392D; experiment: FRET or BRET
[20] = tested on: EGFR domain 3 - Fc, wild-type CH3; experiment: FRET or BRET
[21] = tested on: MetMab full heavy chain with Y349S K370Y T366V K409V, with MetMab light chain; experiment: SEC
[22] = tested on: MetMab full heavy chain with Y349S K370Y T366V K409V, with MetMab light chain; experiment: SEC; remark: listed apart in the source
[23] = tested on: MetMab full heavy chain with K409D K392D, with MetMab light chain; experiment: SEC; remark: listed apart in the source
[24] = molecular target: MetMab full heavy chain with T350V T366L K392L T394W, with MetMab light chain; experiment: SEC
[25] = molecular target: MetMab full heavy chain with T366V K409V, with MetMab light chain; experiment: SEC
[26] = molecular target: MetMab full heavy chain with T366V K409V, with MetMab light chain; experiment: SEC; remark: listed apart in the source
[27] = tested on: MetMab full heavy chain with E357D S364R Y407A, with MetMab light chain; experiment: SEC
[28] = tested on: MetMab full heavy chain with E356G E357D S364Q Y407A, with MetMab light chain; experiment: SEC
[29] = tested on: MetMab full heavy chain with E357D S364R Y407A, with MetMab light chain; experiment: SEC; remark: listed apart in the source
[30] = tested on: MetMab full heavy chain with E356G E357D S364Q Y407A, with MetMab light chain; experiment: SEC; remark: listed apart in the source
[31] = molecular target: MetMab full heavy chain with wild-type CH3, with MetMab light chain [IgG part: P01857]; experiment: SEC; remark: listed apart in the source

Substance: IgG1 Fc with Y349S K370Y T366V K409V
% AB heterodimer [1]: 4.7%
% AB heterodimer [2]: 92.5%

Substance: IgG1 Fc with T366S L358V Y407A
% AB heterodimer [3]: 35%
% AB heterodimer [4]: 92.4%

Substance: VEGFR1 domain 3 - Fc with E356G E357D S364Q Y407A
% AB heterodimer [5]: 93.9%

Substance: VEGFR1 domain 3 - Fc with T366S L358V Y407A
% AB heterodimer [6]: 96.2%

% BB homodimer (co-expressed with m35) [7]: 14.6%
Substance: VEGFR1 domain 3 - Fc, wild-type CH3 (Fc fusion)

% AA homodimer (co-expressed with m22) [8]: 9%
Substance: MetMab full heavy chain with T350V L351Y F405A Y407V, with MetMab light chain (complex)

Substance: IgG1 Fc, wild-type CH3
% AB heterodimer [9]: 27.4%
% AB heterodimer [10]: 51.3%

Substance: VEGFR1 domain 3 - Fc with E357D S364Q Y407A
% AB heterodimer [11]: 93.3%

Substance: IgG1 Fc with T366W
% AB heterodimer [12]: 33.1%
% AB heterodimer [13]: 94.1%

Substance: IgG1 Fc with E356G E357D S364Q Y407A
% AB heterodimer [14]: 23.6%
% AB heterodimer [15]: 83.8%

% AA homodimer (co-expressed with m19) [16]: 19.9%
Substance: MetMab full heavy chain with K409D K392D, with MetMab light chain (complex)

% BB homodimer (co-expressed with m1) (IgG1 Fc, wild-type CH3): 15.9%
Substance: IgG1 Fc, wild-type CH3 (domain or fragment)

% AA homodimer (co-expressed with m18) [17]: 11.3%
Substance: MetMab full heavy chain with D399K E356K, with MetMab light chain (complex)

Substance: IgG1 Fc with K409D K392D
% AB heterodimer [17]: 29.4%
% AB heterodimer [18]: 93.6%

Substance: VEGFR1 domain 3 - Fc with D399K E356K
% AB heterodimer [19]: 96.2%

Substance: VEGFR1 domain 3 - Fc, wild-type CH3
% AB heterodimer [20]: 61.2%

Substance: IgG1 Fc with E357D S364Q Y407A
% AB heterodimer [21]: 11.7%
% AB heterodimer [22]: 84.9%

Substance: IgG1 Fc with D399K E356K
% AB heterodimer [16]: 37.5%
% AB heterodimer [23]: 91.7%

% AA homodimer (co-expressed with m21) [3]: 15.7%
Substance: MetMab full heavy chain with T366W, with MetMab light chain (complex)

Substance: IgG1 Fc with E357D S364R Y407A
% AB heterodimer [14]: 34.7%
% AB heterodimer [15]: 83.5%

% AA homodimer (co-expressed with m23) [24]: 5.1%
Substance: MetMab full heavy chain with T350V T366L K392L T394W, with MetMab light chain (complex)

% AA homodimer (co-expressed with m24) [25]: 28.6%
% AA long dimer (co-expressed with m24) [25]: 24.1%
% AA homodimer (co-expressed with m24) [26]: 4.1%
% AA long dimer (co-expressed with m24) [26]: 3.8%
Substance: MetMab full heavy chain with T366V K409V, with MetMab light chain (complex)

Substance: IgG1 Fc with Y349S K370Y T366M K409V
% AB heterodimer [27]: 29.9%
% AB heterodimer [28]: 31.8%
% AB heterodimer [29]: 85.5%
% AB heterodimer [30]: 94.2%

% AA homodimer (co-expressed with m42) [20]: 24.2%
Substance: EGFR domain 3 - Fc, wild-type CH3 (Fc fusion)

% AA homodimer (co-expressed with m17) [9]: 65%
% AA homodimer (co-expressed with m17) [31]: 31.3%
Substance: MetMab full heavy chain with wild-type CH3, with MetMab light chain (from UniProt P01857 1-399) (complex)
